Experimental findings from article PMC6443806 (Scientific Reports, 2019) are described below.

One data set concerns the target His54 (UniProt position 515, KNAVRHNLSLA). The experiment in a line: stability (GdmCl equilibrium unfolding followed by intrinsic Trp fluorescence) with Wyman-Tanford linkage analysis. The note with it: 37 °C, Not stated for the unfolding buffer (standard buffer contains 150 mM NaCl). GdmCl 0-6 M in the unfolding series., buffer at different pH values (composition not restated; standard buffer is 20 mM HEPES, 150 mM NaCl, 2 mM β-mercaptoethanol) supplemented with GdmCl, DNA-free.

Data set [1] addresses T1, His59 (UniProt position 520, HNLSLHKCFVR). Described as above. The note with it: 37 °C, Not stated for the unfolding buffer (standard buffer contains 150 mM NaCl). GdmCl 0-6 M in the unfolding series., buffer at different pH values (composition not restated; standard buffer is 20 mM HEPES, 150 mM NaCl, 2 mM β-mercaptoethanol) supplemented with GdmCl, DNA-free.
Data set [2] addresses T1, His59. The experiment in a line: kinetics (SEC-monitored dimer dissociation) with Wyman-Tanford linkage analysis. As to conditions: 37 °C, 150 mM NaCl, standard buffer (20 mM HEPES, 150 mM NaCl, 2 mM β-mercaptoethanol) adjusted to different pH values, DNA-free.
Data set [3] has as its target forkhead domain of human FoxP1, H59A mutant (human). The experiment in a line: SEC; isolated dimer diluted to 5 μM in standard buffer (20 mM HEPES, 150 mM NaCl, 2 mM β-mercaptoethanol) at pH 7.8, 37 °C, aliquots over 2 h on Superdex 75; dimer to monomers; Kd from the equilibrium dimer fraction, koff from a single exponential decay, kon derived from Kd = koff/kon. In general terms: Size exclusion chromatography separates by hydrodynamic size, large species first.

Data set [4] shares this target. The data set can be described thus: SEC; isolated dimer diluted to 5 μM in standard buffer (20 mM HEPES, 150 mM NaCl, 2 mM β-mercaptoethanol) at pH 6.0, 37 °C, aliquots over 2 h on Superdex 75; dimer to monomers; Kd from the equilibrium dimer fraction, koff from a single exponential decay, kon derived from Kd = koff/kon.
The target is the same in data set [5]. The data set can be described thus: SEC; isolated dimer diluted to 5 μM in standard buffer (20 mM HEPES, 150 mM NaCl, 2 mM β-mercaptoethanol) at pH 5.0, 37 °C, aliquots over 2 h on Superdex 75; dimer to monomers; Kd from the equilibrium dimer fraction, koff from a single exponential decay, kon derived from Kd = koff/kon.
Data set [6] concerns the molecule itself. The data set can be described thus: SEC; isolated dimer diluted to 5 μM in standard buffer (20 mM HEPES, 150 mM NaCl, 2 mM β-mercaptoethanol) at pH 7.8, 37 °C, aliquots over 2 h on Superdex 75; dimer to monomers; Kd from the equilibrium dimer fraction, koff from a single exponential decay, kon derived from Kd = koff/kon.
Data set [7] concerns the molecule itself. The data set can be described thus: SEC; isolated dimer diluted to 5 μM in standard buffer (20 mM HEPES, 150 mM NaCl, 2 mM β-mercaptoethanol) at pH 5.0, 37 °C, aliquots over 2 h on Superdex 75; dimer to monomers; Kd from the equilibrium dimer fraction, koff from a single exponential decay, kon derived from Kd = koff/kon.
Data set [8] deals with the molecule itself. The data set can be described thus: SEC; isolated dimer diluted to 5 μM in standard buffer (20 mM HEPES, 150 mM NaCl, 2 mM β-mercaptoethanol) at pH 7.0, 37 °C, aliquots over 2 h on Superdex 75; dimer to monomers; Kd from the equilibrium dimer fraction, koff from a single exponential decay, kon derived from Kd = koff/kon.
Data set [9] deals with the molecule itself. The data set can be described thus: SEC; isolated dimer diluted to 5 μM in standard buffer (20 mM HEPES, 150 mM NaCl, 2 mM β-mercaptoethanol) at pH 6.0, 37 °C, aliquots over 2 h on Superdex 75; dimer to monomers; Kd from the equilibrium dimer fraction, koff from a single exponential decay, kon derived from Kd = koff/kon.
Data set [10] concerns the molecule itself. The data set can be described thus: SEC; isolated dimer diluted to 5 μM in standard buffer (20 mM HEPES, 150 mM NaCl, 2 mM β-mercaptoethanol) at pH 5.5, 37 °C, aliquots over 2 h on Superdex 75; dimer to monomers; Kd from the equilibrium dimer fraction, koff from a single exponential decay, kon derived from Kd = koff/kon.
The mark [11] stands for this setting: monomeric folding intermediate (I).

In general, pKa refers to the negative logarithm of the acid dissociation constant. As for “Forkhead box protein P1 (FoxP1), forkhead DNA-binding domain, H59A mutant (Homo sapiens; H59A)”, the results for the pKa with His54 (setting [11]) and in the data set with His54 (unfolded state (U)) were 5.3 and 5.9, respectively.
“Forkhead box protein P1 (FoxP1), forkhead DNA-binding domain, wild type (Homo sapiens)”: the pKa in the data set with His59 [1] (setting [11]) is listed as 5.7; with His59 [1] (unfolded state (U)), 7.7; with His59 [2] (domain-swapped dimer (D)), 5.5; in the data set with His59 [2] (monomer (M)), 7.3; in the data set with His59 [2] (transition state (‡) for domain swapping) it was 5.5.
By Kd is commonly meant the constant that tells how readily two partners part at equilibrium. A higher Kd goes with a looser complex. Broadly, the koff is the first-order rate constant of dissociation. The low end stands for a long-lived complex, the high end for a short-lived complex. For orientation: kon means the rate constant with which the complex forms. Read a low kon as slower complex formation. As for “forkhead domain of human FoxP1, H59A mutant (domain or fragment)”, the Kd was found to be 7.5 µM in data set [3], 5.9 µM in data set [4] and 7.9 µM in data set [5]. Moreover, the koff in data set [3] was 0.000723 s⁻¹; in data set [4], 0.000628 s⁻¹; in data set [5], 0.000988 s⁻¹. For the same molecule, the values for the on-rate (kon) in data set [3], in [4] and in data set [5] were 96.7 M⁻¹ s⁻¹, 107 M⁻¹ s⁻¹ and 125 M⁻¹ s⁻¹, respectively.

B1: forkhead domain of human FoxP1, wild type (domain or fragment)
chain: AEVRPPFTYASLIRQAILESPEKQLTLNEIYNWFTRMFAYFRRNAATWKNAVRHNLSLHKCFVRVENVKGAVWTVDEVEFQKRRPQK
Turning to B1, the equilibrium dissociation constant (Kd) turned out to be 0.6 ± 0.1 µM in data set [6]; 31.2 ± 0.3 µM in data set [7]; 0.8 ± 0.1 µM in data set [8]; 3.7 ± 0.3 µM in data set [9]; 13.1 ± 0.2 µM in data set [10]. The koff in data set [6] is 0.00106 s⁻¹; in data set [7], 0.00235 s⁻¹; in [8], 0.00113 s⁻¹; in data set [9], 0.000553 s⁻¹; in data set [10], 0.000675 s⁻¹. Besides, the kon in data set [6] was determined as 1790 M⁻¹ s⁻¹; in data set [7] it was 58.3 M⁻¹ s⁻¹; in [8] it was 1340 M⁻¹ s⁻¹; in data set [9], 150 M⁻¹ s⁻¹; in data set [10] it was 51.7 M⁻¹ s⁻¹.
